Experimental data taken from US20210046154A1.

Biological target: Siglec-10Fc (human) (UniProt Q96LC7)
Test: Biacore (SPR): control Fc compared with CD24Fc for binding of Siglec-10Fc; only the fitted value is printed under the KD line, no curve is drawn for the control

UniProt Q96LC7, sequence (Q96LC7 17-546): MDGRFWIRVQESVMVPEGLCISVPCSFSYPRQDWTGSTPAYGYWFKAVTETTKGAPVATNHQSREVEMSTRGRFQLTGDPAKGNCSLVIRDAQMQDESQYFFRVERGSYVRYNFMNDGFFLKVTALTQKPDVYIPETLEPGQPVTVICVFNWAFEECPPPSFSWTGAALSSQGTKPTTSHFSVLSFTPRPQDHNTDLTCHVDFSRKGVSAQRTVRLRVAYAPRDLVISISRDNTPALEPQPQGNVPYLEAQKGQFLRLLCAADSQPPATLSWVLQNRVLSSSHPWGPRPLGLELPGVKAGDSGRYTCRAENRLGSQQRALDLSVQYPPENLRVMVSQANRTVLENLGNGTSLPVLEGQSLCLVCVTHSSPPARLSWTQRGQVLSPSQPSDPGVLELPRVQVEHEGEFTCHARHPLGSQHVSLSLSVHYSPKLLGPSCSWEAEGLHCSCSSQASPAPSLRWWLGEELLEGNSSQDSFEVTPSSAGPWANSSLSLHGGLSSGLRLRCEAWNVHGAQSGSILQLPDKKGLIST

Work on control Fc yielded a Kd of 16.2 µM.
